Here are results for 1 molecule from US11433139B2, “Peptide vaccines against interleukin-31” (Zoetis Services LLC, priority 2018, dated 2022).

Assay [1] has as its target T1, canine IL-31 (Canis lupus familiaris, UniProt A0A8I3S3D1).
T1 construct: made in house; host or cells: CHO cells (CHROMOS ACE system)
T1 sequence (A0A8I3S3D1 24-159): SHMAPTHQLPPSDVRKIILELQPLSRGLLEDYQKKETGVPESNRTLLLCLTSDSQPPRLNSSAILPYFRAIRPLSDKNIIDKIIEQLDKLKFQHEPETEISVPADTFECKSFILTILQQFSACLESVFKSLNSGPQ
The assay can be described thus: Inhibition of canine IL-31 induced pSTAT3 signaling in canine DH-82 and feline FCWF4 cells. The format is cell-based. The method in brief:
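DH-82 cells primed with canine IFN-γ 10 ng/mL for 24 h, FCWF4 with feline IFN-γ 125 ng/mL for 96 h, then serum-starved 2 h. mAb pre-incubated 1 h with 1 μg/mL canine or 0.2 μg/mL feline IL-31, cells stimulated 5 min; pSTAT3 by AlphaLISA SureFire, IC50 as half-maximal signalling reduction.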

A further assay deals with equine IL-31. The assay can be described thus: Biacore binding, single test concentration of antibody, equine IL-31 surface. The procedure:
(§1) For the indirect ELISA, binding (ELISA OD) to wildtype feline IL-31 and a feline IL-31 15H05 mutant which had mutations in the monoclonal antibody 15H05 epitope region was assessed. To confirm binding, biacore analysis was performed using canine, feline, equine, human, the feline 15H05 mutant, and feline 11E12 mutant IL-31 proteins as surfaces and a single test concentration of antibody. The feline IL-31 11E12 mutant had mutations in the monoclonal antibody 11E12 epitope region.
(§2) For the indirect ELISA method, antibody binding to wildtype and feline IL-31 15H05 mutant proteins was assessed. […] In comparison, the 11E12 antibody bound to the wild-type feline IL-31 and its binding was not impacted by the mutations in the 15H05 epitope region as evidenced by the data in FIG. 4. To confirm binding, biacore analysis was performed using canine, feline, equine, human, feline 15H05 mutant, and feline 11E12 mutant IL-31 proteins as surfaces and a single test concentration of antibody. Similar to ELISA observations, all antibodies tested bound to wildtype feline IL-31. In agreement with the data described above in this section, mouse antibodies 11 E12 and 15H05 both bound to canine and feline IL-31 surfaces. […] From this group of nine fully canine antibodies, only ZIL1 and ZIL9 cross-reacted with equine IL-31. Of note, antibody 15H05 was the only one of all assayed herein that bound to canine, feline, and equine IL-31 indicating some level of epitope conservation across the three species. In contrast, none of the antibodies described herein bound to human IL-31. Additional biacore surfaces were used to verify ELISA observations showing differential binding of antibodies to wildtype feline IL-31 and two proteins with mutations in the 15H05 (15H05 mutant) or 11 E12 (11E12 mutant) epitopes. […] Differing results can be attributed to differences in the two assay methodologies.
On the technique in general: Surface plasmon resonance follows binding to a sensor surface in real time, without labels.

The target in assay [2] is canine IL-31. The assay can be described thus: Affinity of anti-IL-31 antibodies by surface plasmon resonance (Biacore), canine IL-31 surface. It is filed as binding. The settings on record: IL-31 conjugated to the surface (FIG. 2). The method in brief: (§3)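 IL-31 amine-coupled (NHS/EDC) at 5 μg/mL directly onto the SPR chip, quenched with ethanolamine; candidate mAbs flowed over as analyte. KD from 1:1 model fits; values below 1×10^−11 M are under the instrument's lower quantitation limit.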

In assay [3] the test system is canine IL-31. The assay can be described thus: Competition binding assessment using Biacore, canine IL-31 surface. Conditions: sequential addition of 15H05 and 11E12, Biacore. The protocol:
To further characterize the IL-31 epitopes bound by mAbs 15H05 and 11 E12, blocking experiments were performed using biacore where the surface containing the IL-31 protein was generated followed by sequential addition of antibodies. FIGS. 7A and 7B show the relative binding of each antibody to IL-31 following capture of 11E12 or 15H05. The columns labeled HBS-EP (assay buffer) indicate the maximum signal obtained from each antibody binding to the IL-31 surface alone without competition. […] The sensograms related to FIG. 7A show the disassociation kinetics of both antibodies are very slow on this newly formed biacore surface therefore no additional occupation of binding sites can occur with addition of the same antibody (data not shown).

Assay [4] relates to feline IL-31 11E12 mutant. As to the kind of experiment: Indirect ELISA, binding to feline IL-31 11E12 mutant. Conditions: compared with wildtype. From the text:
To determine the impact of mAbs 11E12 and 15H05 ability to bind these mutant forms of feline IL-31, an indirect ELISA was run using the mutants directly coated on to an immunoassay plate. […] The minor attenuation of mAb 15H05s binding to the 11E12 mutant is likely due to translational effects of the mutations from movement of the two front helices effecting the 15H05 binding site. The mutations designed to affect mAb 15H05s binding (mutant 15H05) show a complete loss of mAb 1505s ability to bind this IL-31 mutant by ELISA. Unlike the 11E12 mutant, the changes in the random coil recognized by mAb 15H05 (mutant 15H05) had no impact on mAb 11E12 binding further supporting the distinction between the two epitopes (FIG. 6C).
For orientation: An ELISA detects its analyte on a solid surface through an enzyme-linked reagent.

Assay [5] relates to feline 15H05 mutant IL-31. The assay can be described thus: Biacore binding, single test concentration of antibody, feline 15H05 mutant IL-31 surface. The procedure:
as §1, §2

Another assay addresses feline IL-31. As to the kind of experiment: Affinity of anti-IL-31 antibodies by surface plasmon resonance (Biacore), feline IL-31 surface. It is filed as binding. Conditions: IL-31 conjugated to the surface (FIG. 2). The method in brief: as §3

Sequence of canine IL-31 (as listed by the source): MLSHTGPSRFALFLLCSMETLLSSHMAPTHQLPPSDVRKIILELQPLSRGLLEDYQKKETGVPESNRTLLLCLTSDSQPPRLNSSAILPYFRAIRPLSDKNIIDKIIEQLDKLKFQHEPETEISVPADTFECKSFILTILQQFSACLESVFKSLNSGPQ
Sequence of feline IL-31 (as listed by the source): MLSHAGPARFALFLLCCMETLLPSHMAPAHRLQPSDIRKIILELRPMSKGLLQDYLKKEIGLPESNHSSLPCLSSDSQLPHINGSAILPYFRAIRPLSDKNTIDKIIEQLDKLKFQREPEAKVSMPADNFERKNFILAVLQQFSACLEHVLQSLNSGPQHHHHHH
Sequence of equine IL-31 (as listed by the source): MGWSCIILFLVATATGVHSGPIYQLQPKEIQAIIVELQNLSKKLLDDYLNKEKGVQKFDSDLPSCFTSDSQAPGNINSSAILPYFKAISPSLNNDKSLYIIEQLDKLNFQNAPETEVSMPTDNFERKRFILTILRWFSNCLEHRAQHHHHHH
Sequence of feline IL-31 11E12 mutant (as listed by the source, change not shown): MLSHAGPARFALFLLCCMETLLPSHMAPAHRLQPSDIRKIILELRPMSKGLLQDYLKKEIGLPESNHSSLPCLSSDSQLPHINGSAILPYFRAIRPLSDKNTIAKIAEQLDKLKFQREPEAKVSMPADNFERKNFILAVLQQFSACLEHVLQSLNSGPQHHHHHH

B1: 15H05: mouse anti IL-31 monoclonal antibody, VH SEQ ID NO: 67, VL SEQ ID NO: 69 (antibody, listed as Mus musculus, V domains shown)
VH: QVQLQQSAAELARPGASVKMSCKTSGYTFTSYTIHWIKQRPGQGLEWIGNINPTSGYTENNQRFKDKTTLTVDRSSNTAYLQLHSLTSEDSAVYFCARWGFKYDGEWSFDVWGAGTTVTVSS
VL: DIQMNQSPSSLSASLGDTITVTCRASQGISIWLSWYQQKPGNIPKVLINKASNLHIGVPPRFSGSGSGTHFTLTITSLQPEDIATYYCLQSQTYPLTFGGGTKLEIN
As for B1, in the assay with canine IL-31 [1] (canine IL-31, canine cells), the “blocking of canine IL-31 signaling in canine cells” value is listed as “capable of blocking canine IL-31 signaling”. Besides, in the assay with canine IL-31 [1] (canine IL-31, feline cells), the “blocking of canine IL-31 signaling in feline cells” value was “capable of blocking canine IL-31 signaling”. In addition, in the assay with equine IL-31, the “binding to equine IL-31 (Biacore)” value is on record as “bound”. For the same molecule, the “affinity (KD) to canine IL-31” value is on record as “sub-nanomolar” at canine IL-31 [2] (listed as Mu-15H05) and “high” at canine IL-31 [2] (listed as mAb 15H05). Moreover, in the assay on canine IL-31 [3], the “competition binding on canine IL-31” value is on record as “capable of binding to canine IL-31 in the presence of one another”. The “binding to feline IL-31 11E12 mutant (ELISA)” value in assay [4] was “partially attenuated”. The “binding to feline 15H05 mutant IL-31 (Biacore)” value in assay [5] is recorded as “did not bind”. Further, the “affinity (KD) to feline IL-31” value on feline IL-31 (listed as Mu-15H05) was “sub-nanomolar”; at feline IL-31 (listed as mAb 15H05) it was “high”.
